According to article PMC1635258:
Where two headings read alike, the source gives them in different places.

Columns and labels:
[1] = molecular target: T1, hRPA (replication protein A heterotrimer p70/p32/p14) (human, UniProt P27694;P15927;P35244 1-616;1-270;1-121); test: EMSA
[2] = molecular target: T1, hRPA (replication protein A …); test: EMSA; remark: listed apart in the source

T1 sequence (P27694 whole entry, chain 1 of 3): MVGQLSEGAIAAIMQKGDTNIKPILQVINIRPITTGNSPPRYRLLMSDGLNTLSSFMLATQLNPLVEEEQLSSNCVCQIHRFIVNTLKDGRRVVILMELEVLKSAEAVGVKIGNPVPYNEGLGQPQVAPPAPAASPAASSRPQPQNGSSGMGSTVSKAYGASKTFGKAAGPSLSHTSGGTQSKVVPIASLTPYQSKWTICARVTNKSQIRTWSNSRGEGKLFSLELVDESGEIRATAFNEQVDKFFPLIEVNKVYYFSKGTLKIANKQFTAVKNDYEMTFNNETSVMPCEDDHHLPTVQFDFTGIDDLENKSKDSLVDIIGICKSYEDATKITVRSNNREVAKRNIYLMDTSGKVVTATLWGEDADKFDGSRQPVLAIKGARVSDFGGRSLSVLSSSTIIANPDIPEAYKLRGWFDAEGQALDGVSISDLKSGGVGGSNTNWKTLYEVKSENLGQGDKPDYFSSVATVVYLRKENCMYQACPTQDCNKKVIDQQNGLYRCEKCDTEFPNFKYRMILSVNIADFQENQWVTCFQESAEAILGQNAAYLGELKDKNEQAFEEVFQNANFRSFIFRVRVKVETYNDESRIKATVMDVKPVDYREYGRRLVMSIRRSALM
T1 sequence (P15927 whole entry, chain 2 of 3): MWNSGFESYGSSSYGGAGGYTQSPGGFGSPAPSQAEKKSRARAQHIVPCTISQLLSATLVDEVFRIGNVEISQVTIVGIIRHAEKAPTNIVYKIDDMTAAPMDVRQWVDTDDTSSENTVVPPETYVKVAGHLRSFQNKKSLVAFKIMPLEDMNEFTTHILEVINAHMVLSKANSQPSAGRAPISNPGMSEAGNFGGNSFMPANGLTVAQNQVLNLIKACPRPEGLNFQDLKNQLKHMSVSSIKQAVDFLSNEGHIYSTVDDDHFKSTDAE
T1 sequence (P35244 whole entry, chain 3 of 3): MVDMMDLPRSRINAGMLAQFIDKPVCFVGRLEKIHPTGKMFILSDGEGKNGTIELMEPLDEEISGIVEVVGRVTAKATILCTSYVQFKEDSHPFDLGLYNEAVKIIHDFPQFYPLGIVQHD

Row | Binder | binding result [1] | binding result [2]
1 | GGGTTAGGGTTAGGGTTAGGG (structured_DNA) [htelo] | binds | 
2 | TTTTTTTTTTTTTTTTTTTTT (ssDNA) [T21] |  | binds
